# Laboratory results from patent US9127035B2, “Compounds for use in the treatment of bacterial infection” (THE ROYAL INSTITUTION FOR THE ADVANCEMENT OF …, priority 2011, dated 2015).
# B1: E. coli pantothenate kinase (PanK or coaA enzyme) (Escherichia coli K-12) (protein)
# chain: MSIKEQTLMTPYLQFDRNQWAALRDSVPMTLSEDEIARLKGINEDLSLEEVAEIYLPLSRLLNFYISSNLRRQAVLEQFLGTNGQRIPYIISIAGSVAVGKSTTARVLQALLSRWPEHRRVELITTDGFLHPNQVLKERGLMKKKGFPESYDMHRLVKFVSDLKSGVPNVTAPVYSHLIYDVIPDGDKTVVQPDILILEGLNVLQSGMDYPHDPHHVFVSDFVDFSIYVDAPEDLLQTWYINRFLKFREGAFTDPDSYFHNYAKLTKEEAIKTAMTLWKEINWLNLKQNILPTRERASLILTKSANHAVEEVRLRK
# notes: made in house
# Legend:
# Assay in all cases: PanK enzyme assay (Michaelis-Menten kinetics)
# Assay type in all cases: biochemical, E. coli
# Conditions in all cases: other: transformation by PanK, 25° C., Tris-HCl pH 7.6, triplicate
# [1] = substrate: CC(C)(CO)[C@@H](O)C(=O)NCCC(=O)NCCSCCCCCC(=O)NC[C@H]1O[C@H](O[C@H]2[C@H](O)[C@@H](O)[C@H](N)C[C@@H]2N)[C@H](N)[C@@H](O)[C@@H]1O
# Experimental: (§1) PanK enzyme assay. The E. coli pantothenate kinase (PanK or coaA enzyme) was expressed and purified as previously described. Enzyme activity was measured as described in the literature [Strauss E, Begley T P J Biol Chem, 2002, 277:48205-48209]. This assay couples the production of ADP to the consumption of NADH through the activity of pyruvate kinase and lactic dehydrogenase. The decrease of NADH concentration was monitored at 340 nm. Reactions were performed at 25° C. in an Agilent 8453 UV-Vis spectrophotometer coupled to an Agilent 89090A Peltier temperature controller. Kinetic parameters were determined by fitting the rate data into the Michaelis-Menten equation using Prism 4.0 (GraphPad). Each reaction mixture (500 μL) contained ATP (1.5 mM), NADH (0.3 mM), phosphoenolpyruvate (0.5 mM), MgCl2 (10 mM), KCl (20 mM), pyruvate kinase (5 units), lactic dehydrogenase (5 units), and PanK (5 μg, 278 nM) in Tris-HCl buffer (50 mM, pH 7.6). The reaction was initiated by addition of the desired substrate (10-160 μM). All data points are from triplicate experiments.
# [2] = substrate: [H][C@]1(O[C@H]2[C@H](O)[C@@H](O)[C@H](N)C[C@@H]2N)O[C@H](CNC(=O)CCCCSCCNC(=O)CCNC(=O)[C@H](O)C(C)(C)CO)[C@@H](O)[C@H](O)[C@H]1N
# Experimental: as §1
# [3] = substrate: [H][C@]1(O[C@H]2[C@H](O)[C@@H](O)[C@H](N)C[C@@H]2N)O[C@H](CNC(=O)CCCSCCNC(=O)CCNC(=O)[C@H](O)C(C)(C)CO)[C@@H](O)[C@H](O)[C@H]1N
# Experimental: as §1
# [4] = substrate: [H][C@]1(O[C@H]2[C@H](O)[C@@H](O)[C@H](N)C[C@@H]2N)O[C@H](CNC(=O)CCSCCNC(=O)CCNC(=O)[C@H](O)C(C)(C)CO)[C@@H](O)[C@H](O)[C@H]1N
# Experimental: as §1
protein,measurement,setting,value
B1,Km,[1],170 ± 50 µM
same,Km,[2],230 ± 69 µM
same,kcat,[2],0.52 ± 0.08 s⁻¹
same,kcat/Km,[2],2300 ± 800 M⁻¹ s⁻¹
same,Km,[3],350 ± 80 µM
same,kcat,[3],0.5 ± 0.05 s⁻¹
same,kcat/Km,[3],1400 ± 400 M⁻¹ s⁻¹
same,Km,[4],480 ± 160 µM
same,kcat,[4],0.47 ± 0.05 s⁻¹
same,kcat/Km,[4],1000 ± 300 M⁻¹ s⁻¹
